According to patent US7790363B2, “Diagnostic test for vitamin B12” (Abbott Laboratories Inc., priority 2005, dated 2010):

B1: Porcine IF cDNA54-1254-Mature Peptide: Porcine intrinsic factor mature peptide, 399 amino acids, SEQ ID NO: 9, expressed from pGEMEX-1 expression vector (protein)
chain: STQTRSSCSVPSAEQPLVNGIQVLMEQSVTSSAFPNPSILIAMNLAGAYNTEAQELLTYKLMATNTSDLTTGQLALTIMALTSSCRDPGNRIAILQGQMENWAPPSLDTHASTFYEPSLGILTLCQNNPEKTLPLAARFAKTLLANSSPFNMDTGAMATLALTCMYNKIPVGSEEGYRALFSQVLRNTVENISMRIQDNGIIGNIYSTGLAMQALSVTPEQPNKEWDCQKTMDTVLTEIKEGKFHNPMAIAQILPSLKGKTYLDVPHVSCSPGHEVPPTLPNHPSPVPTPAPNITVIYTINNQLRGVELLFNETISVSVKRGSVLLIVLEEAQRKNPKFKFETTMTSWGPVVSSINNIAENVNHRTYWQFLSGQTPLNEGVADYIPFNHEHITANFTQY
modifications: S. scrofa
B2: recombinant porcine intrinsic factor: Recombinant porcine intrinsic factor produced in E. coli from the pMAL-IF or pET32a-IF vector, affinity purified (protein)
chain: YNLKAQKLLTYKLMATNTSDLTTGQLALTIMALTSSCRDPGNRIAILQGQMENWAPPSLDTHASTFYEPSLGILTLCQNNPEKTLPLAARFAKTLLANSSPFNMDTGAMATLALTCMYNKIPVGSEEGYRALFSQVLRNTVENISMRIQDNGIIGNIYSTGLAMQALSVTPEQPNKEWDCQKTMDTVLTEIKEGKFHNPMAIAQILPSLKGKTYLDVPHVSCSPGHEVPPTLPNHPSPVPTPAPNITVIYTINNQLRGVELLFNETISVSVKRGSVLLIVLEEAQRKNPKFKFETTMTSWGPVVSSINNIAENVNHRTYWQFLSGQTPLNEGVADYIPFNHEHITANFTQY
modifications: S. scrofa

Assays:
[1] = Solubility of the protein expressed in E. coli; type: physicochemical; details: expression in E. coli from the named vector
Description: Using the Porcine IF cDNA14-1248 (SEQ ID NO: 5) as the template and the Forward Primer pIFMP-ForI (SEQ ID NO: 14) and Reverse Primer pIFMP-RevXhoI (SEQ ID NO: 15), the cDNA encoding the Porcine IF cDNA54-1254-Mature Peptide was amplified by PCR. The PCR profile was as follows: one initial denaturation step at a temperature of 95° C. for 5 minutes; then 33 cycles of the following conditions: a temperature of 95° C. for 30 seconds, then a temperature of 57° C. for 30 seconds, then a temperature of 72° C. for 1 minute; followed by a final extension at a temperature of 72° C. for 5 minutes. This PCR fragment was subcloned into pGEMEX-1 expression vector (purchased from Promega Corporation, Madison, Wis.).
To produce a soluble version of this protein, cDNA encoding the Porcine IF cDNA54-1254-Mature Peptide was amplified by PCR using IF cDNA14-1248 (SEQ ID NO: 5) as the template and the Forward primer pIF-PIC-MP-For EcoR1 (SEQ ID NO: 16) and the Reverse pIF-MP-pMAL-SaI1 Rev primer (SEQ ID NO: 17) and the following PCR conditions: one initial denaturation step at a temperature of 95° C. for 5 minutes; then 35 cycles of the following conditions: a temperature of 95° C. for 30 seconds, then a temperature of 56° C. for 30 seconds, then a temperature of 72° C. for 1 minute; followed by a final extension at a temperature of 72° C. for 5 minutes. […]

[2] = vitamin B12-Alkaline Phosphatase conjugate blot; type: binding; details: E. coli lysate, SDS-PAGE, blotted onto nitrocellulose, probed with vitamin B12-alkaline phosphatase conjugate
Source text: FIG. 2 illustrates the binding of recombinant porcine intrinsic factor to vitamin B12. The E. coli cells were lysed and the proteins were resolved using SDS-PAGE and blotted onto a nitrocellulose membrane. The membrane was probed with vitamin B12 conjugate to alkaline phosphatase. […] Lane 1 contains molecular weight markers (marked in kilodaltons). Lanes 2, 3, 4, and 5 represent cells from various clones expressing recombinant porcine intrinsic factor. Lane 6 contains the native porcine intrinsic factor (purified from hog (Sus scrofa) gut).
The E. coli lysate containing the expressed recombinant porcine intrinsic factor was run on an SDS-PAGE (Polyacrylamide Gel Electrophoresis), and the gel was blotted onto nitrocellulose. This blot was probed with vitamin B12-alkaline phosphatase conjugate and developed using an appropriate substrate. […] Referring now to FIG. 2, Lane 1 contains molecular weight markers (marked in kilodaltons). Lanes 2, 3, 4, and 5 represent cells from various clones expressing recombinant porcine intrinsic factor. Lane 6 contains the native porcine intrinsic factor (purified from hog (Sus scrofa) gut).

[3] = "ARCHITECT" Intrinsic Factor Binding Capacity Assay (one-step competitive assay); details: read from vitamin B12 calibration curve, converted to binding capacity using an equation
Description: The vitamin B12-binding capacity of the recombinant porcine Intrinsic Factor was measured using in “ARCHITECT” Intrinsic Factor Binding Capacity Assay. The assay is a one-step competitive assay where intrinsic factor from the test sample competes with intrinsic factor coated onto microparticles for the vitamin B12-acridinium tracer. Thus, signal in the assay is inversely proportional to the concentration of intrinsic factor in the test sample. The results are read from a vitamin B12 calibration curve, and the vitamin B12 concentration results are converted to binding capacity using an equation. The Binding Capacity Value for the recombinant porcine intrinsic factor was determined to be 904 ng/ml.

[4] = tested on: anti-intrinsic factor antibody; assay: Western blotting with anti-intrinsic factor antibody; type: binding; details: E. coli lysate, SDS-PAGE, blotted onto nitrocellulose, probed with anti-intrinsic factor antibody
Source text: FIG. 3 illustrates the binding of recombinant porcine intrinsic factor to anti-intrinsic factor antibody by Western blotting. The E. coli cells were lysed and the proteins were resolved using SDS-PAGE and blotted onto a nitrocellulose membrane. The membrane was then probed with anti-intrinsic factor antibody. Lane 1 contains molecular weight markers (marked in kilodaltons). Lanes 2, 3, 4, and 5 represent cells from various clones expressing recombinant porcine intrinsic factor. Lane 6 contains the native porcine intrinsic factor (purified from hog (Sus scrofa) gut).
The E. Coli lysate containing the expressed recombinant porcine intrinsic factor was run on an SDS-PAGE (Polyacrylamide Gel Electrophoresis), and the gel was blotted onto nitrocellulose. This blot was probed with anti-intrinsic factor antibody and developed using an appropriate substrate. […] Referring now to FIG. 3, Lane 1 contains molecular weight markers (marked in kilodaltons). Lanes 2, 3, 4, and 5 represent cells from various clones expressing recombinant porcine intrinsic factor. Lane 6 contains the native porcine intrinsic factor (purified from hog (Sus scrofa) gut).

Molecule	solubility of the expressed protein [1]	binding to vitamin B12 (band developed color) [2]	Binding Capacity Value (vitamin B12-binding capacity) [3] [ng/mL]	binding to anti-intrinsic factor antibody (band developed color) [4]
B1	insoluble and formed inclusion bodies			
B2		bound to vitamin B12	904	recognized by the antibody
